Laboratory results published in patent publication US20260183411A1, “TARGETING SORTILIN” (priority 2024, published 2026).
Where a SMILES comes first, the peptide text is derived from it. [ ]: non-standard residue; d: D form. The star is where a group is joined. Dolaproine = CO[C@@H]([C@@H]1CCCN1)[C@@H](C)C(=O)O; Dil = CC[C@H](C)[C@H](NC)[C@@H](CC(=O)O)OC; X1 = C[C@@H](N*)[C@@H](O)c1ccccc1; NMeV = CN[C@H](C(=O)O)C(C)C

Key:
MDA-MB-231 xenograft = assay: MDA-MB-231 murine xenograft efficacy model; format: in vivo, mouse
Experimental: Murine xenograft experiments were conducted at WuXi AppTec and/or Charles River Laboratories and the care and use of animals was conducted in accordance with the regulations of the Association for Assessment and Accreditation of Laboratory Animal Care (AAALAC). MDA-MB-231 tumor cells (ATCC, Manassas, VA, cat #HTB-26) were grown and maintained in L15 medium supplemented with 10% heat inactivated fetal bovine serum, 1% Antibiotic-Antimycotic, and L-glutamine (2 mM) at 37° C. in an atmosphere in 5% CO2, 95% air. BALB/c Nude, female, 6-8 weeks, weighing approximately 18-22 g were purchased from Vital River Laboratory Animal Technology Co., LTD. Mice were inoculated subcutaneously at the right flank with MDA-MB-231 tumor cells (e.g., triple negative breast cancer cells) (10×10^6) in 0.2 mL of PBS with Matrigel (1:1) for tumor development. Animals were randomized and treatment was started when the average tumor volume reached approximately 150-200 mm^3 for the efficacy study. Dosing volume was adjusted based on body weight and was administered at 10 mL/Kg. […] Free MMAE payload was also tested, and similarly dissolved in 25 mM Histidine 10% sucrose pH 7 and one or more of the following doses, 0.6, 0.06 mg/kg, were administered to the mice i.v. at a QW×4 schedule. Tumor sizes were measured twice weekly in two dimensions using a caliper, and the volume in mm^3 calculated using the formula: V=0.5 a×b^2, where a and b are the long and short diameters of the tumor, respectively. TGI was calculated for each group using the formula: TGI (%)=[1−(Ti−T0)/(Vi−V0)]×100; where Ti is the average tumor volume of a treatment group on a given day, TO is the average tumor volume of the treatment group on the first day of treatment, Vi is the average tumor volume of the vehicle control group on the same day with Ti, and V0 is the average tumor volume of the vehicle group on the first day of treatment.
To characterize the effects of the MMAE payload alone, we included free MMAE at molar equivalency to PDCs, and tested at 0.6 and 0.06 mg/kg, as separate arms.
To characterize the effects of the MMAE payload alone, we included free MMAE at molar equivalency to PDCs, and tested at 0.6 mg/kg.

[1] = Maximum tolerated dose (MTD) study; format: in vivo, mouse; conditions: 10 mg/kg i.v. single dose
Experimental: BALB/c Nude mice, female, 6-8 weeks, weighing approximately 18-22 g were purchased from the Shanghai SLAC Laboratory Animal Co., LTD. MTD studies were conducted at WuXi AppTec and the care and use of animals was conducted in accordance with the regulations of the Association for Assessment and Accreditation of Laboratory Animal Care (AAALAC). Two MTD studies were performed (a) a low dose study with doses ranging from 0.1, 0.5, 1 and 3 mg/kg and (b) a high dose study with doses ranging from 3, 5, 10 mg/kg. Dosing volume was determined based on body weight (10 ul/g) and PDCs were dissolved in 25 mM Histidine 10% sucrose pH 7 and administered i.v. at a single dose at day 0. The treatment and observation were conducted up to 7 days and MTD was defined by ≥20% body weight loss. Body weights were measured daily, death and observed clinical signs were recorded.
Doses of 3, 5, and 10 mg/kg were administered. MTD was defined by ≥20% body weight loss and body weight measured daily.

[2] = target: T1, SORT1 on cells (HEK293 cells transiently transfected with / overexpressing SORT1); SORT1-expressing MDA-MB-231 … (UniProt Q99523 78-831, limits assumed); assay: cell-based or functional assay
T1 sequence (looked up): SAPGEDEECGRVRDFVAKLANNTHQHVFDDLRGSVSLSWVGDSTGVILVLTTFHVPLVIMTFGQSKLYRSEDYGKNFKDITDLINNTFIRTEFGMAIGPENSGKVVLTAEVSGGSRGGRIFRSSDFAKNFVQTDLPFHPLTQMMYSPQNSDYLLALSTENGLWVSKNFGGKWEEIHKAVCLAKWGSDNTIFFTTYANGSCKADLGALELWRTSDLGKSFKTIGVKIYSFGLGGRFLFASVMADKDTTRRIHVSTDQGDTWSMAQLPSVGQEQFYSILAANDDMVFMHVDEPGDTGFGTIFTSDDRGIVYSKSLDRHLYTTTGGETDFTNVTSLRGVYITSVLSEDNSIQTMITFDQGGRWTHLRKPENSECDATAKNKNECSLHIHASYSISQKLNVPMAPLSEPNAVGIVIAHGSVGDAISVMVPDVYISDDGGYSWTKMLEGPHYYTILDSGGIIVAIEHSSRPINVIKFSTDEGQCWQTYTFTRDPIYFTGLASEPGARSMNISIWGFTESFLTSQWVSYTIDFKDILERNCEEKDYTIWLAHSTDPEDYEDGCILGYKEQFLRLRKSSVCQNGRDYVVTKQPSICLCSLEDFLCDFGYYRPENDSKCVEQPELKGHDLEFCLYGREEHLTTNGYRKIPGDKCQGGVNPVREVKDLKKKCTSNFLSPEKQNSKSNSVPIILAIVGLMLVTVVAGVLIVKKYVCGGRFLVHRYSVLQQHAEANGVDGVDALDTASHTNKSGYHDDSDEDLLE

Molecule: CC[C@H](C)[C@@H]([C@@H](CC(=O)N1CCC[C@H]1[C@H](OC)[C@@H](C)C(=O)N[C@H](C)[C@@H](O)c1ccccc1)OC)N(C)C(=O)[C@@H](NC(=O)[C@@H](NC)C(C)C)C(C)C [Free MMAE, Monomethyl auristatin E, reference compound] (H-[NMeV]V[Dil][Dolaproine]-X1; N-terminus and C-terminus assumed)
- body weight variation (Example 6) (MDA-MB-231 xenograft; PDC at each dose, free MMAE at equivalency to 3 mg/kg PDC): body weight fluctuations corresponding to treatment times
- body weight loss (Example 8) (MDA-MB-231 xenograft; PDCs 3 mg/kg, free MMAE at molar equivalency (0.6 mg/kg)): body weight fluctuations corresponding to treatment times

Molecule: CC[C@H](C)[C@@H]([C@@H](CC(=O)N1CCC[C@H]1[C@H](OC)[C@@H](C)C(=O)N[C@H](C)[C@@H](O)c1ccccc1)OC)N(C)C(=O)[C@@H](NC(=O)[C@H](C(C)C)N(C)C(=O)OCc1ccc(NC(=O)[C@H](CCCNC(N)=O)NC(=O)[C@@H](NC(=O)CCCC(=O)NCCC(=O)N(C)CC(=O)N(C)CC(=O)N(C)CC(=O)N(C)CC(=O)N[C@@H](CC(=O)O)C(=O)N[C@@H](CC(=O)O)C(=O)N2CCC[C@H]2C(=O)N[C@@H](CCCNC(=N)N)C(=O)N[C@@H](C)C(=O)N2CCC[C@H]2C(=O)N[C@@H](Cc2c[nH]c3ccccc23)C(=O)N2CCC[C@H]2C(=O)N[C@@H](C)C(=O)N[C@@H](CC(C)C)C(=O)N[C@@H](CCC(N)=O)C(=O)N[C@@H](CCCNC(=N)N)C(=O)N[C@@H](CC(C)C)C(=O)N[C@@H](C)C(=O)N[C@@H](CC(C)C)C(=O)N[C@@H](CCCNC(=N)N)C(=O)N[C@@H](CC(C)C)C(=O)O)C(C)C)cc1)C(C)C [PRGN_RL_PDC]
- toxicity [1]: mild toxicity

B1: Peptide 2-GAPDH6-BCN (peptide)
peptide: XXXXXXAPRWDAPLRDPALRQXX
modifications: N-terminal 6-azidohexanoic acid joined by a triazole to hexyl-BCN on the 5' end of the sense strand of GAPDH siRNA; 1: (bAla); 2-5: (Sar); 21: (B13); 22: (G48)
- GAPDH mRNA % knockdown compared to untreated cells (RT-qPCR), HEK293 + SORT1 - CQ [2]: 47%

B2: Peptide 2-GAPDH6-thiol (peptide)
peptide: XXXXXAPRWDAPLRDPALRQXX
modifications: not fully specified; N-terminal maleimide joined by a thioether to 6-mercaptohexanoic acid on the 5' end of the sense strand of GAPDH siRNA; 1: (bAla); 2-5: (Sar); 21: (B13); 22: (G48)
- GAPDH mRNA % knockdown compared to untreated cells (RT-qPCR), HEK293 + SORT1 - CQ [2]: 40%

B3: Peptide 2-GAPDH6-SPDP (peptide)
peptide: CXXXXXAPRWDAPLRDPALRQXX
modifications: N-terminal Ac; Cys 1 side chain in a disulphide with SPDP on the 5' end of the sense strand of GAPDH siRNA; 2: (bAla); 3-6: (Sar); 22: (B13); 23: (G48)
- GAPDH mRNA % knockdown compared to untreated cells (RT-qPCR), HEK293 + SORT1 - CQ [2]: 36%
